Assay results taken from the nanobody polyreactivity screen of Harvey et al. (2022).

Assay: yeast display, Sf9 membrane polyspecificity reagent, FACS + sequencing; frameworks hold sequencing errors
Summary of the method: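 A nanobody's polyreactivity label depends on the gate it was sorted from. Yeast display cells were stained with 10% biotinylated, detergent-solubilized Sf9 membrane reagent for 1 hour at 4 °C, enriched on streptavidin microbeads and sorted by FACS. The low and high (top ~1%) gates were set on anti-HA fluorescence for expression and streptavidin fluorescence for reagent binding.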
For “QVQLVESGGGLVQAGGSLRLSCAASGGIFYSNAMGWYRPAPGKERELVAAISRDGTITYYADSVKGRFTISRDNAKNTVYLQMNSLKPEDTAVYYCAADASIQSWYSIYDYWGQGTQVTVSS”, the “polyreactivity (PSR sort gate)” value was “high polyreactivity”.
For “QVQLVESGGGLVQAGGSLRLSCAASGGIFYSYAMGWYRQAPGKEREFVAAIRRSGGRTYYADSVKGRFTISRDNAKNTVYLQMNSLKPEDTAVYYCAADGWYSGGHDYWGQGTQVTVSS”, the “polyreactivity (PSR sort gate)” value was “high polyreactivity”.
With “QVQLVESGGGLVQAGGSLRLSCAASGGIIEDNMGWYRQAPGKERELVAAIDLRADSTYYADSVKGRFTISRDNAKNTVYLQMNSLKPEDTAVYYCAAGARQGVYRGGDYWGQGTQVTVSS” the “polyreactivity (PSR sort gate)” value was “low polyreactivity”.
For “QVQLVESGGGLVQAGGSLRLSCAASGGIILPYAMGWYRQAPGKERELVAAISGRTGSTNYADSVKGRFTISRDNAKNTVYLQMNSLKPEDTAVYYCAARGVRSYFFPYNYWGQGTQVTVSS”, the “polyreactivity (PSR sort gate)” value was “high polyreactivity”.
For “QVQLVESGGGLVQAGGSLRLSCAASGGIIQGYSMVWYRQAPGKERELVAAISSSGGTTYYADSVKGRFTISRDNAKNTVYLQMNSLKPEDTAVYYCAAPTHSPYDYWGQGTQVTVSS”, the “polyreactivity (PSR sort gate)” value was “low polyreactivity”.
In the case of “QVQLVESGGGLVQAGGSLRLSCAASGGIIRVYVMGWSRQAPGKERELVAAISRRGGSTYYADSVKGRFTISRDNAKNTVYLQMNSLKPEDTAVYYCAAAVRPRANTTYQRPRYYYWGQGTQVTVSS”, the “polyreactivity (PSR sort gate)” value is reported as “high polyreactivity”.
For “QVQLVESGGGLVQAGGSLRLSCAASGGILRQNTMGWYRQAPGKERELVAAISSSGGRTYYADSVKGRFTISRDNAKNTVYLQMNSLKPEDTAVYYCNVPAKRYPYYIRQSTVYPGNYWGQGTQVTVSS”, the “polyreactivity (PSR sort gate)” value was “high polyreactivity”.
For “QVQLVESGGGLVQAGGSLRLSCAASGGILVFYALGWYRQSPGKERELVAAINVSGGSTYYADSVKGRFTISRDNAKNTVYLQMNSLKPEDTAVYYCAALGPYLDYGVQYGYWGQGTQVTVSS”, the “polyreactivity (PSR sort gate)” value was “low polyreactivity”.
In the case of “QVQLVESGGGLVQAGGSLRLSCAASGGILVGYAMGWYRQAPGKERELVAAINYSGGSTNYADSVKGRFTISRDNAKNTVYLQMNSLKPVDTAVYYCAARSTARYGYWGQGTQVTVSS”, the “polyreactivity (PSR sort gate)” value is reported as “low polyreactivity”.
With “QVQLVESGGGLVQAGGSLRLSCAASGGILWGNGMGWYRQAPGKERELVAAISTGGSTNYADSVKGRFTISRDNAKNTVYLQMNSLKPEETAVYYCAGGAGGVRYSFYWNDYWGQGTQVTVSS” the “polyreactivity (PSR sort gate)” value was “high polyreactivity”.
In the case of “QVQLVESGGGLVQAGGSLRLSCAASGGISTAYTMGWYRQAPGKERELVADITRSGGRTYYADSVKGRFTISRDNAKNTVYLQMNSLKPEDTAVYYCARTYYYRFNYWGQGTQVTVSS”, the “polyreactivity (PSR sort gate)” value is reported as “high polyreactivity”.
In the case of “QVQLVESGGGLVQAGGSLRLSCAASGGLFYYNAMGWYRQAPGKERELVAAISGSGGTTYYADSVKGRFTISRDNAKNTVYLQMNSLKPEDTAVYYCAKRPYTVIAYSRYGYWGQGTQVTVSS”, the “polyreactivity (PSR sort gate)” value is reported as “high polyreactivity”.
With “QVQLVESGGGLVQAGGSLRLSCAASGGMGWYRQAPGKERELVATISSVGSTNYADSVKGRFTISRDNAKNTVYLQMNSLKPEDTAVYYCNDTGVQYFLYAYWGQGTQVTVSS” the “polyreactivity (PSR sort gate)” value was “low polyreactivity”.
For “QVQLVESGGGLVQAGGSLRLSCAASGGMGWYRQAPGKERELVATISSVGSTNYADSVKGRFTISRDNAKNTVYLQRNSLKPEVTAVYYCNATGVQYFLYGYWGQGTQVTVSS”, the “polyreactivity (PSR sort gate)” value was “low polyreactivity”.
In the case of “QVQLVESGGGLVQAGGSLRLSCAASGGNFGRYAMGWYRQAPGKERELVADINWSGGANTNYADSVKGRFTISRDNAKNTVYLQMNSLKPEDTAVYYCAAPSYFTHSGRFDYWGQGTQVTVSS”, the “polyreactivity (PSR sort gate)” value is reported as “low polyreactivity”.
For “QVQLVESGGGLVQAGGSLRLSCAASGGPFFYYAMGWYRAAPGKAREWVAAITWSATDTYYADSVKGRFTISRDNAKNTVYIQMNSLKPEDTAVYYCNAAPIGSEVDYGGQGTQVTVSS”, the “polyreactivity (PSR sort gate)” value was “low polyreactivity”.
With “QVQLVESGGGLVQAGGSLRLSCAASGGSFNNYAMGWYRQAPGKERELVAAITYSGVRTNYADSVKGRFTISRDNAKNTVYLQMNSLKPEDTAVYYCAADGLSNVRQMDYWGQGTQVTVSS” the “polyreactivity (PSR sort gate)” value was “low polyreactivity”.
With “QVQLVESGGGLVQAGGSLRLSCAASGGTFALYAMGWYRQAPGKERELVASISFNGGSTYYADSVKGRFTISRDTAKNTVYLQMNSLKPEDTAVYYCNTGYQWGVYESQTAEEDYWGQGTQVTVSS” the “polyreactivity (PSR sort gate)” value was “low polyreactivity”.
In the case of “QVQLVESGGGLVQAGGSLRLSCAASGGTFAWYAMGWYRQAPGKERELVAAITSDGNTDYADSVKGRFTISRDNAKNTVYLQMNSLKPEDTAVYYCAADVQWRSAYDYTMGYWGQGTQVTVSS”, the “polyreactivity (PSR sort gate)” value is reported as “low polyreactivity”.
In the case of “QVQLVESGGGLVQAGGSLRLSCAASGGTFDSNAMGWYRQAPGKERELVAAISSGGSTYYADSVKGRFTISRDNAKNTVYLQMNSLKPEDTAVYYCAADSSGGASAPMDYWGQGTQVTVSS”, the “polyreactivity (PSR sort gate)” value is reported as “low polyreactivity”.
For “QVQLVESGGGLVQAGGSLRLSCAASGGTFDSYVMGWYRQAPGKERELVAAITWSGGSTYYAESVKGRFTISRDNAKNTVYLQMNSLKPEDTAVYYCNNGGSTTYAYDYWGQGTQVTVSS”, the “polyreactivity (PSR sort gate)” value was “low polyreactivity”.
For “QVQLVESGGGLVQAGGSLRLSCAASGGTFDTYAMGWYRQAPGKERELVAGIDWSGGSTYYADSVKGRFTISRDNAKNTVYLQMNSLKPEDTAVYYCAADYYYPSQMDYWGQGTQVTVSS”, the “polyreactivity (PSR sort gate)” value was “low polyreactivity”.
For “QVQLVESGGGLVQAGGSLRLSCAASGGTFDTYAMGWYRQAPGKERELVAGIDWSGGSTYYADSVKGRFTISRDYAKNTVYLQMNSLKPEDTAVYYCAADFYYPSQMDYWGQGTQVTVSS”, the “polyreactivity (PSR sort gate)” value was “low polyreactivity”.
In the case of “QVQLVESGGGLVQAGGSLRLSCAASGGTFDVYTMGWYRQAPGKERELVAVISSSGGGTYYADSVKGRFTISRDNAKNTVYLQMNSLKPEDTAVYYCAARRKRQNTYYPYYYWGQGTQVTVSS”, the “polyreactivity (PSR sort gate)” value is reported as “high polyreactivity”.
In the case of “QVQLVESGGGLVQAGGSLRLSCAASGGTFDWNTMGWYRQAPGKERELVASITSGGRTNYADSVKGRFTISRDNAKNTVYLQMNSLKPEDTAVYYCAKYRRSAYPWQTWVGQKFDYWGQGTQVTVSS”, the “polyreactivity (PSR sort gate)” value is reported as “low polyreactivity”.
For “QVQLVESGGGLVQAGGSLRLSCAASGGTFERNAMGWYRQAPGKERELVAAITGSGGRTYYADSVKGRFTISRDNAKNTVYLHMNSLKPEDTAVYYCAAVPWWKYNYWGQGTQVTVSS”, the “polyreactivity (PSR sort gate)” value was “high polyreactivity”.
For “QVQLVESGGGLVQAGGSLRLSCAASGGTFFENAMGWDRQAPGKERELVAAISSSGASTYYADSVKGRFTISRDNAKNTVYLQMNSLKPEDTAVYYCNAGQRVRSTLYDYWGQGTQVTVSS”, the “polyreactivity (PSR sort gate)” value was “high polyreactivity”.
For “QVQLVESGGGLVQAGGSLRLSCAASGGTFFGYAMGWYRPAPGKERELVAAISGSGGRTYYADSVKGRFTISRDNAKNTVYLQMNSLKPEDTAVYYCAADATHETYYPFYYWGQGTQVTVSS”, the “polyreactivity (PSR sort gate)” value was “high polyreactivity”.
With “QVQLVESGGGLVQAGGSLRLSCAASGGTFFSYTKGWYRQAPGKERELVAAITWSGASTYYADSVKGRFTISRDNAKNTVYIQMNSLKPEDTAVYYCAADSYDSPGYLTTSTYRLDYWGQGTHVTVSS” the “polyreactivity (PSR sort gate)” value was “low polyreactivity”.
In the case of “QVQLVESGGGLVQAGGSLRLSCAASGGTFFYNAMGWYRQAPGKERELVAAINGGTSTNYADSVKGRFTISRDNAKNTVYLQMNSLKPEDTAVYYCAAVYRRLGRYDWYDYWGQGTQVTVSS”, the “polyreactivity (PSR sort gate)” value is reported as “low polyreactivity”.
In the case of “QVQLVESGGGLVQAGGSLRLSCAASGGTFGSYAMGWYRQAPGKERELVAAIRSGDRTYYADSVKGRFTISRDNAKNTVYLQMNSLKPEDTAVYYCNADGYARFRTYYSRDTREYDYWGQGTQVTVSS”, the “polyreactivity (PSR sort gate)” value is reported as “low polyreactivity”.
For “QVQLVESGGGLVQAGGSLRLSCAASGGTFGSYAMGWYRQAPGKERELVAAITGSGGRTYYADSVKGRFTISRDNAKNTVYLQMNSLKPEDTAVYYCNATRGIGPPFYYWGQGTKVTVSS”, the “polyreactivity (PSR sort gate)” value was “high polyreactivity”.
In the case of “QVQLVESGGGLVQAGGSLRLSCAASGGTFGTNAMGWYRQAPGKERELVATIRTSVGSTYYADSVKGRFTISRDNAKNTVYLQMNSVKPEDTAVYYCAAGVPKNGQAGYDYWGQGTQVTVSS”, the “polyreactivity (PSR sort gate)” value is reported as “high polyreactivity”.
In the case of “QVQLVESGGGLVQAGGSLRLSCAASGGTFGVNAMGWYRQAPGKERELVAAISSSGGRTYYADSVKGRFTISRDNAKNTVFLQMNSLKPEDTAVYYCAARNYFWGQGTQVTVSS”, the “polyreactivity (PSR sort gate)” value is reported as “low polyreactivity”.
For “QVQLVESGGGLVQAGGSLRLSCAASGGTFGYNAMGWYRQAPGKERELVAAITGGGRTYYADSVKGRFTISRDNAKNTVYLQMNSLKPEDTAVYYCNADYAYYSYDYWGQGTQVTVSS”, the “polyreactivity (PSR sort gate)” value was “low polyreactivity”.
In the case of “QVQLVESGGGLVQAGGSLRLSCAASGGTFGYYAMGWYRQAPGKDRELVAGINYSGGRTYYADSVKGRFTISRDNAKNTVYLQMNSLKPEDTAVYYCAAQAYVGYRGYDYWGQGTQVTVSS”, the “polyreactivity (PSR sort gate)” value is reported as “high polyreactivity”.
For “QVQLVESGGGLVQAGGSLRLSCAASGGTFHYYAMGWYRQAPGKERELVAAISWSGGSTYYADSVKGRFTISRDNAKNTVYLQMNSLKPEDTAVYYCAAETYPYLFHTYDYWGQGTQVTVSS”, the “polyreactivity (PSR sort gate)” value was “low polyreactivity”.
In the case of “QVQLVESGGGLVQAGGSLRLSCAASGGTFINYAMGWYRQAPGKERELVAGISQSGDSTYYADSVKGRFTISRDNAKNTVYLQMNSLKPEDTAVYYCNADAVAQQYDWWENYDYWGQGTQVTVSS”, the “polyreactivity (PSR sort gate)” value is reported as “high polyreactivity”.
For “QVQLVESGGGLVQAGGSLRLSCAASGGTFIRYAMALYRQAPGKERELVADITSSGDSTYYADSVKGRFTISRDNAKNTVYLPMNSLITEDTAVYYCATTHDYWLWGMGYWGQGTQVTVSS”, the “polyreactivity (PSR sort gate)” value was “high polyreactivity”.
In the case of “QVQLVESGGGLVQAGGSLRLSCAASGGTFKTYVMGWSRQEPGKERELVAVISGSGASTYYADSVKGRFTISRDNAKNTVYLQMNSLKPEDTAVYYCAARYAWGWSGYYYWGQGTQVTVSS”, the “polyreactivity (PSR sort gate)” value is reported as “high polyreactivity”.
In the case of “QVQLVESGGGLVQAGGSLRLSCAASGGTFKYYAMGWYRQAPGKERELVADITSGGSTNYADYVKGRFTISRDNAKNTVYLQMNSLKPEDTAVYYCAKRRYWVKYDYWGQGTQVTVSS”, the “polyreactivity (PSR sort gate)” value is reported as “high polyreactivity”.
